Results as given in patent US20230192896A1 (BIOVERATIV THERAPEUTICS, published 2023).

Biological target: T1, FIXa-SM (FIXa+EGR-CMK) (human, UniProt P00740 47-191; P00740 227-461, EGR-CMK (L-Glu-Gly-Arg chloromethyl ketone) covalently bound to the active site)
T1 construct: BLI antigen bought from Haematologic Technologies (HCIXA-EGR); also called FIXa with substrate mimic
Test: BLI; class meaning: paragraph 914

Binder | binding result
BIIB-9-582 (antibody, V domains shown, IgG) VH: QVQLVQSGAEVKKPGASVKVSCKASGYTFTSYYMVWVRQAPGQGLEWMGIINPSGGSTSYAQKFQGRVTMTRDTSTSTVYMELSSLRSEDTAVYYCARAPTYFYSYGMDVWGQGTTVTVSS VL: not shown | binds
BIIB-9-627 (antibody, V domains shown, IgG) VH: QVQLVQSGAEVKKPGASVKVSCKASGYTFTSYYMHWVRQAPGQGLEWMGIINPSGGSTSYAQKFQGRVTMTRDTSTSTVYMELSSLRSEDTAVYYCARADYDYWSGYGGLGMDVWGQGTTVTVSS VL: not shown | binds
BIIB-9-590 (antibody, V domains shown, IgG) VH: QVQLVQSGAEVKKPGASVKVSCKASGYTFTSYYMHWVRQAPGQGLEWMGIINPSGGSTSYAQKFQGRVTMTRDTSTSTVYMELSSLRSEDTAVYYCARDQEWAYYGMDVWGQGTTVTVSS VL: EIVLTQSPATLSLSPGERATLSCRASQSVSSYLAWYQQKPGQAPRLLIYDASNRATGIPARFSGSGSGTDFTLTISSLEPEDFAVYYCQQVDNFPLTFGGGTKVEIK | binds
BIIB-9-616 (antibody, V domains shown, IgG) VH: QVQLVQSGAEVKKPGASVKVSCKASGYTFTSYYMHWVRQAPGQGLEWMGIINPSGGSTSYAQKFQGRVTMTRDTSTSTVYMELSSLRSEDTAVYYCARGGSKYFFDLWGRGTLVTVSS VL: EIVMTQSPATLSVSPGERATLSCRASQSVSSSLAWYQQKPGQAPRLLIYGASTRATGIPARFSGSGSGTEFTLTISSLQSEDFAVYYCQQADNFPFTFGGGTKVEIK | binds
BIIB-9-608 (antibody, V domains shown, IgG) VH: QLQLQESGPGLVKPSETLSLTCTVSGGSISSSSYYWGWIRQPPGKGLEWIGSIYYSGSTYYNPSLKSRVTISVDTSKNQFSLKLSSVTAADTAVYYCARDRLETSEAGMDVWGQGTTVTVSS VL: not shown | binds
BIIB-9-475 (antibody, V domains shown, IgG) VH: QVQLQESGPGLVKPSETLSLTCTVSGGSISSYYWSWIRQPPGKGLEWIGSIYYSGSTNYNPSLKSRVTISVDTSKNQFSLKLSSVTAADTAVYYCARDVGGYDYGVGAFDIWGQGTMVTVSS VL: DIQMTQSPSSLSASVGDRVTITCQASQDITNYLNWYQQKPGKAPKLLIYDASNLETGVPSRFSGSGSGTDFTFTISSLQPEDIATYYCQQSSNFPLTFGGGTKVEIK | binds
BIIB-9-479 (antibody, V domains shown, IgG) VH: QVQLQESGPGLVKPSETLSLTCTVSGGSISSYYWSWIRQPPGKGLEWIGSIYYSGSTNYNPSLKSRVTISVDTSKNQFSLKLSSVTAADTAVYYCAREHYGDYPLFDIWGQGTMVTVSS VL: DIQMTQSPSTLSASVGDRVTITCRASQSISSWLAWYQQKPGKAPKLLIYKASSLESGVPSRFSGSGSGTEFTLTISSLQPDDFATYYCQQYRILSPTFGGGTKVEIK | binds
BIIB-9-592 (antibody, V domains shown, IgG) VH: QLQLQESGPGLVKPSETLSLTCTVSGGSISSNSYYWGWIRQPPGKGLEWIGSIYYSGSTYYNPSLKSRVTISVDTSKNQFSLKLSSVTAADTAVYYCARDSNYDSSGYALYYYGMDVWGQGTTVTVSS VL: not shown | binds
BIIB-9-480 (antibody, V domains shown, IgG) VH: QVQLQESGPGLVKPSETLSLTCAVSGYSISSGYYWGWIRQPPGKGLEWIGSSYHSGSTYYNPSLKSRVTISVDTSKNQFSLKLSSVTAADTAVYYCARDQQDYGAFDIWGQGTMVTVSS VL: not shown | binds
BIIB-9-585 (antibody, V domains shown, IgG) VH: QLQLQESGPGLVKPSETLSLTCTVSGGSISSSDYYWGWIRQPPGKGLEWIGSIYYSGSTYYNPSLKSRVTISVDTSKNQFSLKLSSVTAADTAVYYCAREVGTYYYGLDFWFDPWGQGTLVTVSS VL: DIQMTQSPSSVSASVGDRVTITCRASQGISSWLAWYQQKPGKAPKLLIYAASSLQSGVPSRFSGSGSGTDFTLTISSLQPEDFATYYCQQANSYPITFGGGTKVEIK | binds
BIIB-9-605 (antibody, V domains shown, IgG) VH: not shown VL: DIQMTQSPSSVSASVGDRVTITCRASQGISSWLAWYQQKPGKAPKLLIYAASSLQSGVPSRFSGSGSGTDFTLTISSLQPEDFATYYCQQADVFPFTFGGGTKVEIK | binds
BIIB-9-566 (antibody, V domains shown, IgG) VH: QVQLVQSGAEVKKPGASVKVSCKASGYTFTSYYMVWVRQAPGQGLEWMGIINPSGGSTSYAQKFQGRVTMTRDTSTSTVYMELSSLRSEDTAVYYCARVPTYRYSYLAFDIWGQGTMVTVSS VL: EIVMTQSPATLSVSPGERATLSCRASQSVSSSLAWYQQKPGQAPRLLIYGASTRATGIPARFSGSGSGTEFTLTISSLQSEDFAVYYCQQHDNWPPTFGGGTKVEIK | binds

The remaining lines, values ahead:

binding result | Binder
binds | BIIB-9-414 (antibody, V domains shown, IgG) VH: QVQLVQSGAEVKKPGASVKVSCKASGYTFTSYYMHWVRQAPGQGLEWMGIINPSGGSTSYAQKFQGRVTMTRDTSTSTVYMELSSLRSEDTAVYYCARDPYSYGMYYFDYWGQGTLVTVSS VL: DIQMTQSPSSVSASVGDRVTITCRASQGISSWLAWYQQKPGKAPKLLIYAASSLQSGVPSRFSGSGSGTDFTLTISSLQPEDFATYYCQQGDVFPFTFGGGTKVEIK
binds | BIIB-9-587 (antibody, V domains shown, IgG) VH: QVQLVQSGAEVKKPGASVKVSCKASGYTFTSYYMHWVRQAPGQGLEWMGIINPSGGSTSYAQKFQGRVTMTRDTSTSTVYMELSSLRSEDTAVYYCARGPPGYEYYMDVWGKGTTVTVSS VL: DIQMTQSPSSVSASVGDRVTITCRASQGISSWLAWYQQKPGKAPKLLIYAASSLQSGVPSRFSGSGSGTDFTLTISSLQPEDFATYYCQQADSFPFTFGGGTKVEIK
binds | BIIB-9-621 (antibody, V domains shown, IgG) VH: QLQLQESGPGLVKPSETLSLTCTVSGGSISSSSYYWGWIRQPPGKGLEWIGSIYYSGSTYYNPSLKSRVTISVDTSKNQFSLKLSSVTAADTAVYYCARDGSISGSRFDYWGQGTLVTVSS VL: not shown
binds | BIIB-9-477 (antibody, V domains shown, IgG) VH: EVQLLESGGGLVQPGGSLRLSCAASGFTFSNYAMSWVRQAPGKGLEWVSAISGSGGSTYYADSVKGRFTISRDNSKNTLYLQMNSLRAEDTAVYYCARGGVYSSSWMRFWGQGTLVTVSS VL: EIVMTQSPATLSVSPGERATLSCRASQSVSSSLAWYQQKPGQAPRLLIFGASTRATGIPARFSGSGSGTEFTLTISSLQSEDFAVYYCQQDVNWPITFGGGTKVEIK
binds | BIIB-9-452 (antibody, V domains shown, IgG) VH: QVQLVQSGAEVKKPGASVKVSCKASGYTFTSYYMHWVRQAPGQGLEWMGIINPSGGSTSYAQKFQGRVTMTRDTSTSTVYMELSSLRSEDTAVYYCARDGRLSYTWDRWGQGTLVTVSS VL: EIVMTQSPATLSVSPGERATLSCRASQSVSSNLAWYQQKPGQAPRLLIYGASTRATGIPARFSGSGSGTEFTLTISSLQSEDFAVYYCQQANNFPFTFGGGTKVEIK
binds | BIIB-9-622 (antibody, V domains shown, IgG) VH: QVQLVQSGAEVKKPGASVKVSCKASGYTFTSYYMHWVRQAPGQGLEWMGIINPSGGSTSYAQKFQGRVTMTRDTSTSTVYMELSSLRSEDTAVYYCARDGATTVSYLSFDIWGQGTMVTVSS VL: EIVMTQSPATLSVSPGERATLSCRASQSVSSSLAWYQQKPGQAPRLLIYGASTRATGIPARFSGSGSGTEFTLTISSLQSEDFAVYYCQQHSTWPPTFGGGTKVEIK
